Data on one substance can be found in patent publication US20190016800A1.

As usually defined, the Kd is the constant that tells how readily two partners part at equilibrium.

The target in the experiment is cynomolgus monkey LAG-3 protein (Cat#LA3-C52A0, Acrobiosystems) (cynomolgus monkey). In words: BLI ForteBio Octet RED 96, biotin labeled antibody on streptavidin sensor, antigen 3.125-100 nM, 1:1 fit. Background: In BLI a coated tip is dipped into the sample, and binding shifts an interference pattern.

Substance “LAG3.5 (BMS-986016, developed by Bristol-Myers Squibb) (antibody)” returned a Kd of 2.22 nM.
